In the DeepSol protein solubility set:

Assay: soluble on expression in E. coli; label from the status in PepcDB or PDB records

Sequence | soluble on expression in E. coli
MSLFYYIVDDDEVFRSMLSQIIEDGDLGEVIGESEDGAFVEAEQLNYKKVDILFIDLLMPMRDGIETVRHIASSFTGKIIMISQVESKQLIGEAYTLGVEYYITKPLNKIEVVSVVRKVIERIRLERSIYDIQKSLNNVFQWEKPQMRSETVQEEKKISDSGRFLLAELGIAGENGSKDLLSMLEYLYGQEKAQTFEFGFPALKDIFHQITLKKLGEIASDADIEKEKKASEQRVRRAIYQSLNHLASLGLTDFSNPKFESYAPKFFDFTVVRKRMTEMTKDGVATSGHIRINTKKFIQVLYFEAKRLMEIEEGHHHHHH | soluble
MSLGDVVMNERELILAIETSCDETSAAVIENGTTILSNVVSSQIDSHKRFGGVVPEIASRHHVEQITVIVEEAMHEAGVDFADLAAVAVTEGPGLVGALLIGVNAAKAIAFAHQLPLIGVHHIAGHIYANRLLKELEFPLLALVVSGGHTELIYMENHGEFEVIGETRDDAVGEAYDKVARTLGLPYPGGPHIDRLAVNGEDTLQFPRAWLEPDSFDFSFSGLKSAVINTLHNAKQRGENVQAEDVAASFQASVIDVLVTKTKKAAEEYKVRQVLLAGGVAANKGLRTALEEAFFKEPIDLVIPPLSLCTDNAAMIGAAASIKFKQQTFAGMDLNGQPSLELENDEGHHHHHH | soluble
MSLGEKHHMVLNRDQGITTRFSPQQKRLQLSSPKPYLLFFFTASCGACKEAIPYLNAIEEQWGERFEVIGVLGGSRGIKSDLEFLKRHSIRFKVLSDPSSSDYLSRAVGGVMGVPLFFFFDETGAPKEHFLGLVPQRVLEEEVRSLLEGHHHHHH | soluble
MSLGELFAVFNEKLTIPEQEALMFLYAYMPTGDVTDYTGDYYLENVRLSDQARREMPWGKEIPDDVFRHFVLPIRVNNENLDDSRRVFYNELKDRVKNLSLHDAVLEVNHWCHEKVIYTPSDARTSAPLASVKTAYGRCGEESTFTVAALRSVGIPARQVYTPRWAHTDDNHAWVEAWVDGKWYFFGACEPEPVLNLGWFNAPASRGMLMHTKVFGRYTGQEEIMYETPNYTEINVIDNYAPTAKGSVLVTDAEGQPVADATVEFKVYNYAEFYTVATKHTDRSGHASLTAGKGDMLVWASKDGRFGYSKLSFGKDNELKITLDKNASETYSLPLDIVPPAEGEGHHHHHH | not soluble
MSLGETTNLTFLRTDGQNIVTGTGEIFHIRGVTLTNNFWGNWVNGESEKLQSQGMDPIIRPLVQDAWVLTDDDFERIKDLGCNTVLYDINYQLFAEDNPNREENLKKLKEHIRRFSSMDIYTAVMLMAPPGLDSINDAYEKYKHGSERIKSVFEDDTYYEQWVEMWKYLAEELKDFKGVAGYGLINQPRAPSESEGGIGIFRERLNNVCREIRKIDKNHIIFVPEYNSREANPGESYWNEKTNSYVIDNGEQGIIWERGLVKVDSSNVVYLFHFFEPYNFVNDGVGDFDAESLEAQVRKRYEWAKNVGRAPLLTEYGISRVNSVDKRVQWLETVHDIFDKYGISASYFQYKNAVGAFINVKTGFNALYGEYVSWDSEIGLNPFYFVNEHVATSAKENHFDEALKEYYLKGKNLKKISILDNQPILETLQNFWKEGHHHHHH | soluble
MSLGEVAPTLAAYDLQGEAVALEQWEGKLVYLNFWSVNCGGCLAEMATLNQLSQEYQDQAVVVAINTDPEQVEIAPVLAQHNINYPVIRDQLGITQERYQVIGTPTSFLIDRNGKVIEWHQGVRNEQELTALFKQKVSEKEGHHHHHH | not soluble
MSLGFSTYRATNYNEGTAYGNTPVILTLKSTSKSNLKTAVEELQKLNASYSNTTTLAGDDRIQTAIEISKEYYNNDGEKQDHSADVKENVKNVVLVGANALVDGLVAAPLAAEKDAPLLLTSKDKLDSSVKSEIKRVLDLKTSTEVTGKTVYLAGGVNSVSKEVVTELESMGLKVERFSGDDRYETSLKIADEIGLDNDKAYVVGGTGLADAMSIASVASTKLDGNGVVDKTNGHATPIVVVDGKADRISDDLDSFLGSADVDIIGGFASVSEKMEEAISDATGKGVTRVKGDDRQDTNSEVIKTYYANDTEGHHHHHH | soluble
MSLGGQEKEHLTMRAEEWHLVSGAVSMRGRRPTDEDTMVVVAAIHSHRNIRIQALFDGHGGPNVAQFAANRLQSLFARQKGYSRRDLEKICHALDEELKKNNVRRGGSTGVIMVIEKVEKPEKVIVRGRQILKDPGLTPLKEHYRKQAGPAEEITLGTSETPFRLHVANVGDSRAMLVLEDEYYEMTKDHKPEDPEEKSRILRAGASVTDSEGTSVPRIDGSLALSRSFGDFSLKQGSGSTPDAVISTPDVRQFYAGYNDLLVLFCDGVTEPVASSWPQVAAYTREIFVQTGDVVKTAVALAEQAYSAGSQDNLSAVVTRLRPDPAEEGHHHHHH | soluble
MSLGGSVEVLHWWTAGGEAKAVSALKDQFEAEGGTWIDSPVAGGGGDAAMTALRSRVIAGNPPSAVQLKGPSIQEWAAEGVVANLDDIAKAENWDKLLPALLKSVVTYEGHYVAVPVNIHRVDWLWANPAVLAKAGVAVPTTWDEFNTAAEALKAKGIIPLAHGGQPWQDATLFEVVVLGLGGPAFYHKALVELDDAALRGDTMVKVFDQMRRLRGFVDPNFSGRDWNLATAMVINGEAGFQIMGDWAKGEFLGAGKVPGKDFLCIAAPGKGFLLNSDSLVMFDVKGADKIEGQKTLARLVLGETFQRTFNTLKGSIPARQGMDLADFDACAQKSQADLTKAIAADSLEPSMAHEMAVPRSVRGAIMDVVTAHFNSSESSAEAVAHLADSIAQAREGHHHHHH | soluble
MSLGILRQAHWRNPSLERSPALILAHGCFEDVHGKVAHGLVRGTDRFDIVAVIDPDCAGHDAGTLLDGRPRNIPVFASIEAALAQGRRRPAVAIVGMATHGGRFTETLRAALFEAAAAGLSLVNGLHDLAGDDPEIAAETARHGASILDLRRPRAVAELHFWTGQIHGVAAPRIAVLGTDCALGKRTTARLLTQALNADGIRTEMIYTGQTGWMQGGRYGFILDALPNDFVSGELEHAILTCYREVRPDLIILEGQSALRNPSGPCGAELLLSGAAAGVILQHAPGRRHYDGFEGSRFRIPPVEDEIRLIEHYGVPVLGVSLNGRDSGPEGLREAQRRLARTLDVPVVCPLEDGVTDLLPPLRALLEREEVAEGHHHHHH | soluble
MSLGKALEIDLGNRLQALDIDGPTREILRECRPIIEKIIDEAVLDSYNKILAYPEVRDAYAGMKIEDACQAQRTHWIDDVFAGTFAEEQIRNGVEIFSKRQRQGLSLRWYFCFYSNILRCMIAAVYPQYRRDKEKLQRVIGALTRTVMFELEIASTAYMHSAQEQVAVALNDAAGQFEREGHHHHHH | soluble
MSLGKRLKEARQKAGYTQKEAAEKLNIGNNNLSNYERDYRDPDTDTLLKLSNLYNVSTDYLLGKDEVSKKNETDLLNKTINEAIQELKDEDTLLFMNDGEFDEETARLVKKALKNGIKFIDELKKKE | not soluble
MSLGLTTKPLSLKVNAALFDVDGTIIISQPAIAAFWRDFGKDKPYFDAEHVIQVSHGWRTFDAIAKFAPDFANEEYVNKLEAEIPVKYGEKSIEVPGAVKLCNALNALPKEKWAVATSGTRDMAQKWFEHLGIRRPKYFITANDVKQGKPHPEPYLKGRNGLGYPINEQDPSKSKVVVFEDAPAGIAAGKAAGCKIIGIATTFDLDFLKEKGCDIIVKNHESIRVGGYNAETDEVEFIFDDYLYAKDDLLKWEGHHHHHH | soluble
MSLGMAAWDRNSINPLQAYVYKTSKLPFYDENLHNLAEKIAPHCLLAHLRGVSYHDKQVVTDQNVHPFLYPVTSIALAHNGMLHNFETMRYDLLKYVKTEYRKYIKGTTDSEWIYAVFLSQLENPKGHFDASEIINAVIATLKILKTVRQQNNIVINSPVNLFLTNGDFIAATRFCLDYGWKPKDATQSTHFTYHSLWYTYGERYGFYENEYKMKGGTINSSIIIASEPLTENTTTWLEVPEYTLIFANQVDGEIKITSQDINEGHHHHHH | not soluble
MSLGPVENHSLPRTAAFFDLDKTVIAKSSTLTFSKSFYQGGLINRRAVLRTAYAQFVFLAGGADHDQMERMREYLSALCRGWNVRQVKEIVAETLHDLIDPIIYDEAASLIEEHHTAGRDVVIVSTSGAEVVEPIGELLGADRVVATRMIVGDDGCFTGEVEYYAYGPTKAEAIKELAASEGYDLARCYAYSDSATDLPMLESVGHPHAVNPDRALRREAIARQWPILDFHRPVRLKQRLPALSVPPREGHHHHHH | soluble
MSLGQGSILTKANTINNMEYVTEVFGAIPTEEQVSYQKEELTAFIHFGVNTFTGREWGDGTENPEIFNPTNLDADQWVKTLAEAGFGRVILTAKHHDGFCLWDSAYTKHDVASSPWKNGKGDVVKEVLEACAKYNIKFGVYLSPWDQNSEHYGDGNGGDYNEFYMNQLRELLTNYGPIAEVWMDGAKGSNVKQEYNFEEWFALIKKLQPECLIFSPQGPDIRWIGNEKGYAGEPCWSTIDIEKMKERENPTYLNNGEEGGPNWIVGESDVSIRPGWFYHESQDNEVKSLEKMMDIYFKSIGRNSVLLLNVPPNKEGKLHENDVNRLKKFGETIKELFNDDLALNKEVIVDGFANNDETYGANKIVDGDYDTYWAPDNSSKTGTIEIDLGGSKEFDVISLQEYIPLGQRVSSFNVEVLQGENWNKVYEGKTIGYKRLVRIAPTKGEKIRINITGSLEVPLINNVGVYKQPISIEEGHHHHHH | soluble
MSLGSGHIRAAEALQKFVVQKYPKSKTLIVDTFKYINPLIHTVVVDGYLNIVKYVPEIYGGLYRMSEHIKNIDRMSRGFSNLLTPKIHRLIQSFKPSIIVCTHPFPLQMIAHLKKHYNLDVPSIAIVTDFVNHPFWFQNNIEAYIVAHDYIKRDMIECGISEDRIFTYGLPVAPEFLKLEHHHHHH | not soluble
MSLGYRVGNSDSTSLLSAFAPPERAKKKSKEKRPLQAARFLSLLYPKTDPHSAVQDPSLVHEEHQTRLAYLQDRLCSTGDILKNTRTLETIAAYKQAVKEFVQYAIKHNYTTESKSSIRIDRGTGMPDTVIFTKIKVIDQKLASFVRELMSHQVDQLTVLQKTEEIYGMLVDLLIEGHHHHHH | soluble
MSLHLIPRPKSVINHEGEFFIERDTEIILSSELSFEDLNLAIMIQKEIEKVLDFKLNINKLFMDKKYSNSIILREFKFENEEEYKIEIKENQVIIEGFGAGLFYGCQSFRQLVREFGACIPNLTIEDSPYFKYRGFYHDVTRGMVPTLDTLKRLVDKAAFYKINQLQLYIEHTFAFKGMSEVWMDKDPLTAEEILILDKYCKERHVELVPSLSTFGHLYEALRSKSFRELCELEIGDEEYSFVDRMAHHTLDVTNPKSLDFVESMLLEFIPLFSSDKFNICCDETFDLGKGKSREKAEKLGVGKIYTEFLNKVYNIVKRFNKNVMFWGDIIVGYPELLSDIPEDLTCLTWNYHPQANDVATKIIAENNKVQYVCPGVGGWNMMMNLIEGSFSNIRRMVNHGMKYGAIGVLNTNWGDYGNINLLANSMPSMIYGAGISWNPKEEEFNEIFKSISLMEFGDESMKVVSLMDKLSKNQVAGWGELVRWKEKFNEREETKEEIKNIDTLKVFEGYKVASEVRREFIKLLKNTEDKEAIQSFIVSSKGWELIDKFFMVLLEREFNKKSLLDIDKKDLAKDLELWFYDYTSIWRKYNKESELNRIREVIVYMCSYLRGEGHHHHHH | soluble
